Data as given in patent publication EP1812465B1.

Columns and labels:
PRO87299(ECD)-Fc (human) = assay: Biacore; PRO87299(ECD)-Fc amine coupled (~9000 RU), HVEM injected at 2µg/ml, against the PR04346-Fc control flow cell
[1] = target: PRO87299/LIGHT expressed together on cells (human); assay: radioligand binding to cells expressing PRO87299 and LIGHT together, Scatchard analysis
LIGHT expressed on cells = assay: radioligand binding to transfected cells, Scatchard analysis
[2] = target: HVEM expressed on transfected 293 cells; assay: as above
[3] = target: HVEM expressed on transfected 293 cells; assay: radioligand binding to transfected cells, displacement with unlabelled protein, Scatchard analysis
HVEM-Fc = assay: Biacore; HVEM-Fc amine coupled (~7500 RU), 8nM PRO87299(ECD)-Fc, read 105 seconds after injection

With “HVEM (protein of the SPDI protein library) (receptor)” the response units over control (response units) (PRO87299(ECD)-Fc (human)) was 1200.

In the case of HVEM-Fc (Fc fusion), the Kd [1] is reported as 0.5 nM and the Kd (LIGHT expressed on cells) is reported as 7 nM.

For I-125-LIGHT-FLAG (ligand), the Kd [2] was 2.5 nM.

PRO87299(ECD)-Fc (Fc fusion) was tested, and the Kd [3] was 25 nM and the response units (HVEM-Fc) was 100 RU.
